Measurements taken from publication PMC12051053.

Target: H3K9ac nucleosome with 147 bp DNA

## G60A SIRT6 (from UniProt Q8N6T7 2-355) (enzyme)
  Km for the nucleosome substrate in the Western blot-based deacylation assay: 0.088 µM
